Several values for one entry are separate records, joined by “and”; a condition that tells them apart may be missing. Equal values may be shown once.
Legend:
Assay in all cases: Cytokine-stimulated phosphorylation in immunophenotypically defined cell populations from healthy donor BM (flow cytometry);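 on pAKT S/N ratio: Phosphoprotein MFI normalized to lymphocyte MFI as internal negative control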;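 on pERK S/N ratio: Phosphoprotein MFI normalized to lymphocyte MFI as internal negative control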;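 on pS6 S/N ratio: Phosphoprotein MFI normalized to lymphocyte MFI as internal negative control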;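 on pSTAT3 S/N ratio: Phosphoprotein MFI normalized to lymphocyte MFI as internal negative control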
Format in all cases: cell-based, human
pAKT = conditions: for pAKT Percent (%) Responding Cells, Mean / pAKT S/N ratio: healthy donor BM, mean ± SD
Experimental: (§1) Bone marrow (BM) samples were collected in 7.5 mL Iscove's modified Dulbecco's medium (IMDM) supplemented with 100U penicillin, 0.01 mg/mL streptomycin, and 70 μg/mL heparin sodium salt from 10 patients undergoing hip replacement surgery, who were otherwise healthy. These patients were from a pool of surgery patients, age 49 to 77, and represented […] patients. […] These BM samples were rinsed twice with IMDM to release cells, filtered using a 100 μm Nylon cell strainer to remove marrow particles, and centrifuged for at RT fro 7 minutes at 200 g. The cell pellet was washed twice with sterile IMDM to remove traces of fat and re-suspended in IMDM to a concentration of 3×10^7 cells/mL.
(§2) To assess the signal transduction response after growth factor simulation, a series comprising two sets of tubes including about 3×10^6 cells/100 μL were incubated at 37° C. for 30 minutes. After this pre-incubation period, tubes with then processes with either a stimulant or inhibitor. […] To examine the effects of protein phosphorylation inhibition, tubes were incubated with an inhibitor cocktail comprising 100 μM/100 μL UO126, 1 μM/100 μL LY294002, and 1 μM/100 μL rapamycin. One unstimulated tube receiving no stimulant or inhibitor was processed to assess basal levels of phospho-protein expression. After stimulation the cells were immediately fixed in 10% formaldehyde solution at 37° C. Pre-labeling with CD13, CD16 and CD64 antibodies was carried out 20 minutes prior to formaldehyde fixation. After fixation, one set of tubes was permeabilized without methanol for pAKT, pERK and pS6 staining and the other for 80% methanol permeabilized for pSTAT3 and pSTAT5 staining. After permeablization, the cells were washed in PBS with 2% BSA and blocked by re-suspended in 75 μL of PBS comprising 25% heat inactivated normal mouse serum, 25% normal rabbit serum. To stain cells with fluorescent conjugated monoclonal antibodies, samples were incubated on ice for 45 minutes in 100 μL of an antibody staining solution including either: 1) CD15-Pacific Orange, CD34-Phycoerythrin-Texas Red, CD117-Phycoerythrin-Cyanin 5.5, CD45-Allophycocyanin-Alexa Fluor 750 (or CD45-Pacific Orange, in which case CD15-Pacific Orange was omitted), pS6-Pacific Blue, pERK-Alexa Fluor 488 and pAKT-Alexa Fluor 647 or 2) CD15-Pacific Orange, CD34-Phycoerythrin-Texas Red, CD117-Phycoerythrin-Cyanin 5.5, CD45-Allophycocyanin-Alexa Fluor 750 or CD45-Pacific Blue, pSTAT3-Alexa Fluor 488 and pSTAT5-Phycoerythrin. The stained cells were washed twice with ice cold PBS containing 2% BSA and centrifuged at 800 g for 6 minutes at 4° C. The supernatant was discarded and cells re-suspended in 250 μL of chilled wash buffer for data acquisition. Stained cells were examined using either GALIOS flow cytometer (Beckman Coulter) or CYAN ADP (Beckman Coulter) equipped with 488 nm, 405 nm and 635 nm lasers to detect the degree of fluorescence. Data were analyzed using FCS Express (De Novo Software, CA) analysis software.
(§3) Specific phosphoprotein expression of pERK, pS6, pAKT, pSTAT5, and pSTAT3 was examined in seven discrete phenotypically defined populations based on 7-color immunophenotyping (FIG. 1). The percent of responding (phosphorprotein positive) cells for each of these populations was determined from individual single parameter histograms based on a fixed integration region set on the inhibitor treated control at about 3% positives.

pERK = conditions: for pERK Percent (%) Responding Cells, Mean / pERK S/N ratio: healthy donor BM, mean ± SD
Experimental: as §1, §2, §3

pS6 = conditions: healthy donor BM, mean ± SD
Experimental: as §1, §2, §3

pSTAT3 = conditions: healthy donor BM, mean ± SD
Experimental: as §1, §2, §3

pSTAT5 = conditions: healthy donor BM, mean ± SD
Experimental: as §1, §2, §3

B1: FMS-Like Tyrosine Kinase 3 (FLT-3) ligand (protein, UniProt P49771 27-235, looked up)
Fms-related tyrosine kinase 3 …: TQDCSFQHSPISSDFAVKIRELSDYLLQDYPVTVASNLQDEELCGGLWRLVLAQRWMERLKTVAGSKMQGLLERVNTEIHFVTKCAFQPPPSCLRFVQTNISRLLQETSEQLVALKPWITRQNFSRCLELQCQPDSSTLPPPWSPRPLEATAPTAPQPPLLLLLLLPVGLLLLAAAWCLHWQRTRRRTPRPGEQVPPVPSPQDLLLVEH
pAKT; CD34^+ (CD34^+/CD117^+ cells)
  pAKT Percent (%) Responding Cells, Mean: 34.3% and 34.3 ± 19.4%
  pAKT S/N ratio: 7.2 ± 4.9
pAKT; CD117^+ (CD34^−/CD117^+ cells)
  pAKT Percent (%) Responding Cells, Mean: 20.5 ± 28.3%
  pAKT S/N ratio: 2.8 ± 2.9
pAKT; G1, immature myeloid cells
  pAKT Percent (%) Responding Cells, Mean: 3.0 ± 4.3%
  pAKT S/N ratio: 2.3 ± 1.1
pAKT; G2, intermediate myeloid cells
  pAKT Percent (%) Responding Cells, Mean: 3.6 ± 5.0%
  pAKT S/N ratio: 2.4 ± 1.0
pAKT; G3, mature myeloid cells
  pAKT Percent (%) Responding Cells, Mean: 3.8 ± 2.5%
  pAKT S/N ratio: 2.7 ± 1.3
pAKT; Mono, monocytes
  pAKT Percent (%) Responding Cells, Mean: 21.5% and 21.5 ± 23.8%
  pAKT S/N ratio: 4.2 ± 3.0
pAKT; Table 7 comparison value
  pAKT, Normal Sample: 76.9
pERK; CD34^+ (CD34^+/CD117^+ cells)
  pERK Percent (%) Responding Cells, Mean: 76.9% and 76.9 ± 11.0%
  pERK S/N ratio: 11.9 ± 3.6
pERK; CD117^+ (CD34^−/CD117^+ cells)
  pERK Percent (%) Responding Cells, Mean: 37.1 ± 8.8%
  pERK S/N ratio: 10.9 ± 2.9
pERK; G1, immature myeloid cells
  pERK Percent (%) Responding Cells, Mean: 3.3 ± 5.4%
  pERK S/N ratio: 2.9 ± 0.7
pERK; G2, intermediate myeloid cells
  pERK Percent (%) Responding Cells, Mean: 6.3 ± 11.2%
  pERK S/N ratio: 2.8 ± 0.6
pERK; G3, mature myeloid cells
  pERK Percent (%) Responding Cells, Mean: 9.1 ± 15.6%
  pERK S/N ratio: 3.6 ± 1.3
pERK; Mono, monocytes
  pERK S/N ratio: 12.8 and 12.8 ± 6.7
pERK; Table 7 comparison value, matches percent responding CD34^+ cells of Tables 1-5
  pERK, Normal Sample: 76.9
pS6; CD34^+ (CD34^+/CD117^+ cells)
  pS6 Percent (%) Responding Cells, Mean: 68.8% and 68.8 ± 21.1%
  pS6 S/N ratio: 31.1 ± 26.0
pS6; CD117^+ (CD34^−/CD117^+ cells)
  pS6 Percent (%) Responding Cells, Mean: 36.1 ± 16.4%
  pS6 S/N ratio: 44.4 ± 44.4
pS6; G1, immature myeloid cells
  pS6 Percent (%) Responding Cells, Mean: 2.1 ± 1.5%
  pS6 S/N ratio: 3.3 ± 1.9
pS6; G2, intermediate myeloid cells
  pS6 Percent (%) Responding Cells, Mean: 2.5 ± 1.9%
  pS6 S/N ratio: 2.9 ± 1.8
pS6; G3, mature myeloid cells
  pS6 Percent (%) Responding Cells, Mean: 3.9 ± 2.7%
  pS6 S/N ratio: 3.6 ± 2.3
pS6; Mono, monocytes
  pS6 S/N ratio: 33.4 and 33.4 ± 30.5
pSTAT3; CD34^+ (CD34^+/CD117^+ cells)
  pSTAT3 Percent (%) Responding Cells, Mean: 13.5 ± 9.4%
  pSTAT3 S/N ratio: 3.5 ± 3.3
pSTAT3; CD117^+ (CD34^−/CD117^+ cells)
  pSTAT3 Percent (%) Responding Cells, Mean: 3.5 ± 2.2%
  pSTAT3 S/N ratio: 2.6 ± 0.6
pSTAT3; G1, immature myeloid cells
  pSTAT3 Percent (%) Responding Cells, Mean: 2.7 ± 3.3%
  pSTAT3 S/N ratio: 3.4 ± 0.4
pSTAT3; G2, intermediate myeloid cells
  pSTAT3 Percent (%) Responding Cells, Mean: 1.8 ± 1.4%
  pSTAT3 S/N ratio: 3.3 ± 0.6
pSTAT3; G3, mature myeloid cells
  pSTAT3 Percent (%) Responding Cells, Mean: 5.3 ± 5.6%
  pSTAT3 S/N ratio: 3.7 ± 0.5
pSTAT3; Mono, monocytes
  pSTAT3 Percent (%) Responding Cells, Mean: 4.8 ± 3.9%
  pSTAT3 S/N ratio: 2.6 ± 0.4
pSTAT5; CD34^+ (CD34^+/CD117^+ cells)
  pSTAT5 Percent (%) Responding Cells, Mean: 16.1 ± 6.1%
  pSTAT5 S/N ratio: 1.9 ± 1.4
pSTAT5; CD117^+ (CD34^−/CD117^+ cells)
  pSTAT5 Percent (%) Responding Cells, Mean: 5.7 ± 5.8%
  pSTAT5 S/N ratio: 2.1 ± 0.6
pSTAT5; G1, immature myeloid cells
  pSTAT5 Percent (%) Responding Cells, Mean: 2.7 ± 2.5%
  pSTAT5 S/N ratio: 2.6 ± 0.5
pSTAT5; G2, intermediate myeloid cells
  pSTAT5 Percent (%) Responding Cells, Mean: 2.0 ± 1.6%
  pSTAT5 S/N ratio: 2.7 ± 0.5
pSTAT5; G3, mature myeloid cells
  pSTAT5 Percent (%) Responding Cells, Mean: 3.1 ± 1.0%
  pSTAT5 S/N ratio: 3.2 ± 0.7
pSTAT5; Mono, monocytes
  pSTAT5 Percent (%) Responding Cells, Mean: 3.1 ± 1.9%
  pSTAT5 S/N ratio: 3.9 ± 4.9
